Experimental data reported in publication PMC5594927.

How the values were obtained:
[1] = biological target: T1, AtGPA1, Arabidopsis Gα subunit, His-tagged (Arabidopsis thaliana) (UniProt P18064)
T1 sequence: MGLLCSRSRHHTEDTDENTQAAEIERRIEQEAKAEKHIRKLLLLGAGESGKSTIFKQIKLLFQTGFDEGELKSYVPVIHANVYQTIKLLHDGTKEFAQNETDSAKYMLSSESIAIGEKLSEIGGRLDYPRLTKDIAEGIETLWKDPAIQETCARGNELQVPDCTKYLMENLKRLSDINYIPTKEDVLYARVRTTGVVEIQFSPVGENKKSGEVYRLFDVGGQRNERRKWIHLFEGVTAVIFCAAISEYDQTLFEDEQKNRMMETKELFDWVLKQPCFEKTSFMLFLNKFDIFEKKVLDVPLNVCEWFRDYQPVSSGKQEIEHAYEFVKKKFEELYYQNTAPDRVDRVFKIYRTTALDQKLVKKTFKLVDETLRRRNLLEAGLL

[2] = biological target: T1, AtGPA1, Arabidopsis Gα subunit, His-tagged (Arabidopsis thaliana); remark: listed apart in the source

B1: C-terminal domain of AtRGS1 (residues 284–459), His-tagged (domain or fragment)
chain: KEEFRPVDPNEPLDKLLLNKRFRHSFMEFADSCYAGETLHFFEEVYEHGKIPEDDSIRRIYMARHIMEKFIVAGAEMELNLSHKTRQEILTTQDLTHTDLFKNALNEVMQLIKMNLVRDYWSSIYFIKFKEEESCHEAMHKEGYSFSSPRLSSVQGSDDPFYQEHMSKSSRCSSPG
rate constant of single turnover GTP hydrolysis by AtGPA1 with 30 nM RGS1box [1]: 0.18 min⁻¹ | GAP activity as ΔK per molecule, single turnover GTPase assay (min^−1 pmol^−1) [2]: 0.0378
